From patent US20090035322A1 (Regeneron, published 2009)
Where a chain is given by its changes, count along the chain named.

T1: human CD20 (human, UniProt P11836 1-297)
T1 sequence: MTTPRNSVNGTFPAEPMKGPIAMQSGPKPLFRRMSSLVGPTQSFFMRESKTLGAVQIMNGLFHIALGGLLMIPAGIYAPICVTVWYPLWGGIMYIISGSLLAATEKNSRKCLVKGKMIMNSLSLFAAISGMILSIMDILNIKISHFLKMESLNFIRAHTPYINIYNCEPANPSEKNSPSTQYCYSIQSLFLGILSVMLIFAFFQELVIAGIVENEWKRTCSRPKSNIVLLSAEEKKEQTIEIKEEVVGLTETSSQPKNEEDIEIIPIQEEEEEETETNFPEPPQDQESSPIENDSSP

T2: mutant human CD20 #7 (Y77F, N163D) (human, UniProt P11836 1-297)
T2 construct: Stably expressed on MG87 cells
T2 chain: T1 sequence with Y77F, N163D

T3: mutant human CD20 #8 (Y77F, N163D, N166D) (human, UniProt P11836 1-297)
T3 construct: Stably expressed on MG87 cells
T3 chain: T1 sequence with Y77F, N163D, N166D

T4: mutant human CD20 #10 (A157V) (human, UniProt P11836 1-297)
T4 construct: Stably expressed on MG87 cells
T4 sequence: T1 sequence with A157V

T5: mutant human CD20 #2 (N163D) (human, UniProt P11836 1-297)
T5 construct: Stably expressed on MG87 cells
T5 sequence: T1 sequence with N163D

B1: 6F6-1 (antibody, V domains shown)
VH: AVQLVESGGGLVQPGRSLRLSCAASGFTFRDYAMHWVRQGPGKGLEWVSGISWNTDYIGYADSVKGRFTISRDNAKNSLYLQMNSLRPEDTALYYCAKDARYGRDNYYGMDVWGQGTTVTVSS
VL: EIVMTQSPATLSVSPGERATLSCRASQSVSHNLAWYQQKPGQAPRLLIYGAYTRATGIPDRFSGTGSGTEFTLTISSLQSEDFAVFYCQQYNNWPLTFGGGTKVEIK
notes: Fully human IgG, constant region not specified; also called 6F6-1N
B2: 9E4-20 (antibody, V domains shown)
VH: B1 VH with A1E, R30Y, G40A, T55S, P88A, D105N, Q115P
VL: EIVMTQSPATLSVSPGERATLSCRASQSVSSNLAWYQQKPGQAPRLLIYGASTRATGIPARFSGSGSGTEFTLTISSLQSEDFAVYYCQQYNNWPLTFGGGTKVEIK
notes: Fully human IgG, constant region not specified; also called 9E4-20N
B3: 10F2-13 (antibody, V domains shown)
VH: EEQLVESGGDLVQPGRSLRLSCAASGFTFHDYTMHWVRQAPGKGLEWVSGISWNSGSLGYADSVKGRFTISRDNAKKSLYLQMNSLRAEDTALYYCAKDPSYGSGSYHSYYGMDVWGQGTTVTVSS
VL: EIVLTQSPATLSLSPGERATLSCWASQSISRYLVWYQQKCGQAPRLLIYEASKRATGIPVRFSGSGSGTDFTLTISSLESEDFAVYYCQQRFNWPLTFGGGTKVEIK
notes: Fully human IgG, constant region not specified; also called 10F2-13N; ab 10F2-13
B4: 6B9-4 (antibody, V domains shown)
VH: B3 VH with L58I, K77N, A88I, H108Y, S109Y
VL: B3 VL with W24R, I29V, R31S, K39R, C40P, K53N, V60A, F92S
notes: Fully human IgG, constant region not specified; also called 6B9-4N
B5: 9C11-14 (antibody, V domains shown)
VH: QVQLVESGGDSVKPGGSLRLSCAASGFTFSDSYMTWIRQAPGKGLEWVSFISSSGSTIYYADSVKGRFTISRDNVKKSLYLQMNRLRAEDTAVYYCAREEPGNYVYYGMDVWGQGTTVTVSS
VL: EIVVTQSPATLSLSPGERATLSCRTSQTTTSYLAWYRQKPGQAPRLLIYDASNRAAGIPARFSGSGSGTDFTLTINSLEPEDFAVYYCQLRTNWITFGQGTRLEIK
notes: Fully human IgG, constant region not specified; also called 9C11-14N
B6: 9D4-7 (antibody, V domains shown)
VH: EVQLVESGGGLVQPGRSLRLSCAASGFTFYDYAMHWVRQAPGKGLEWVSGISWNSDTIGYADSVKGRFTISRDNAKNSLYLQMNSLRAEDTALYYCTKDGSYGHFYSGLDVWGQGTTVTVSS
VL: EIVLTQSPATLSLSPGERATLSCRASQSVSSYLAWYQQKPGQAPRLLIYVASNRATGIPARFSGSGSGTDFTLTISSLEPDDFAVYYCQQRYYWPLTFGGGTKVEIK
notes: Fully human IgG, constant region not specified; also called 9D4-7N
B7: 2B7-7 (antibody, V domains shown)
VH: EVQLVESGGGLVQPGRSLRLSCAASGFTFRDYTMHWVRQGPGKGLEWVSGISWNSDYIGYADSVKGRFTISRDNAKNSLYLQMNSLRVEDTALYYCAKLSGTYRDYFYGVDVWGQGTTVTVSS
VL: B6 VL with T20A, S31N, V50D, D81E, Y92S, Y93N, K107R
notes: Fully human IgG, constant region not specified; also called 2B7-7N
B8: 10E3-17 (antibody, V domains shown)
VH: EVQLVESGGGLVQPGRSLRLSCAASGFTFRDYAMHWVRQVPGKGLEWVSGISWNRGTIGYADSVKGRFTISRDNAKNSLFLQMNSLRADDTALYYCAKDHYYGSGSPYGMDVWGQGTTVTVSS
VL: EIVLTQSPATLALSPGERATLSCRASQSVSKYLAWYQQKPGQAPRLLIYDASKRVTGIPGRLSGSGSGTDFTLTISSLEPEDFALYYCQQSSNWPITFGQGTRVEIK
notes: Fully human IgG, constant region not specified; also called 10E3-17N
B9: 8G6-5 (antibody, V domains shown)
VH: EVQLAESGGDLVQSGRSLRLSCAASGITFHDYAMHWVRQPPGKGLEWVSGISWNSDYIGYADSVKGRFTISRDNAKKSLYLQMNSLRPDDTALYYCVKDFHYGSGSNYGMDVWGQGTTVTVSP
VL: EIVMTQSPATLSMSPGERATLSCRASQSVSRNLAWYQQKVGQAPRLLISGASTRATGIPARFSGSGSGTEFTLTINSLQSEDFAVYYCQQSNDWPLTFGQGTRLEIK
notes: Fully human IgG, constant region not specified; also called 8G6-5N

These binders were tested against T1, human CD20 (assay: cell-based or functional assay).

| ADCC EC50 (pM), Daudi + PBMC | Binder |
| --- | --- |
| 5.15 pM | B1 |
| 2.37 pM | B2 |
| 6.68 pM | B3 |
| 4.27 pM | B4 |
| 10.2 pM | B5 |
| 1.53 pM | B6 |
| 1.99 pM | B7 |
| 1.2 pM | B8 |
| 14.8 pM | B9 |

Target: T1, human CD20
Experiment: cell-based or functional assay
Remark: another data set of the same source

| Binder | % Cytotoxicity (CDC, Daudi), 0 hour | % Cytotoxicity (CDC, Daudi), 1 hour | % Cytotoxicity (CDC, Daudi), 6 hour |
| --- | --- | --- | --- |
| B1 | 97.1% | 97.1% | 76.4% |
| B2 | 67.4% | 31.2% | 49.9% |
| B4 | 98.1% | 98.5% | 97.5% |
| B8 | 97% | 96.2% | 79.2% |

Target: T1, human CD20
Experiment: cell-based or functional assay
Remark: another data set of the same source

| CDC, Daudi EC50 | CDC, RL EC50 | Binder |
| --- | --- | --- |
| 0.56 nM | 1.2 nM | B1 |
| 1.53 nM | 1.7 nM | B2 |
| 0.17 nM | 0.36 nM | B3 |
| 0.34 nM | 0.97 nM | B4 |
| 7.14 nM | 12 nM | B5 |
| 0.22 nM | 0.83 nM | B6 |
| 0.24 nM | 1.03 nM | B7 |
| 0.59 nM | 7.8 nM | B8 |
| 0.21 nM | 1.06 nM | B9 |

Target: T2, mutant human CD20 #7 (Y77F, N163D)
Experiment: FACS, mutant-hCD20 MG87 cells; 100%=best antibody
Protocol: (§1) Briefly, approximately 1×10⁶ cells from each stably transfected cell line expressing a mutant human CD20 were collected and incubated with each anti-human antibody, at 10 μg/ml, on ice for 1 hr, followed by incubation with APC-conjugated goat anti-human IgG (Jackson Immunolabs), at 10 μg/ml, on ice for 45 min. For each antibody, binding to each mutant human CD20 was assessed by flow cytometry.

| Percent of Binding to Mutant Human CD20 | Binder |
| --- | --- |
| 2% | B1 |
| 1% | B2 |
| 2% | B3 |
| 2% | B4 |
| 96% | B5 |
| 2% | B6 |
| 2% | B7 |
| 1% | B8 |
| 1% | B9 |

Target: T3, mutant human CD20 #8 (Y77F, N163D, …)
Experiment: FACS, mutant-hCD20 MG87 cells; 100%=best antibody
Protocol: as §1

| Percent of Binding to Mutant Human CD20 | Binder |
| --- | --- |
| 0% | B1 |
| 0% | B2 |
| 0% | B3 |
| 0% | B4 |
| 100% | B5 |
| 0% | B6 |
| 0% | B7 |
| 0% | B8 |
| 0% | B9 |

Each binder was assayed against T4, mutant human CD20 #10 (A157V) (assay: FACS, mutant-hCD20 MG87 cells; 100%=best antibody).
Protocol: as §1

| Percent of Binding to Mutant Human CD20 | Binder |
| --- | --- |
| 98% | B1 |
| 76% | B2 |
| 87% | B3 |
| 75% | B4 |
| 83% | B5 |
| 75% | B6 |
| 83% | B7 |
| 87% | B8 |
| 96% | B9 |

What follows are binders tested against T5, mutant human CD20 #2 (N163D) (assay: FACS, mutant-hCD20 MG87 cells; 100%=best antibody).
Protocol: as §1

| Percent of Binding to Mutant Human CD20 | Binder |
| --- | --- |
| 74% | B1 |
| 0% | B2 |
| 54% | B3 |
| 3% | B4 |
| 83% | B5 |
| 2% | B6 |
| 40% | B7 |
| 1% | B8 |
| 45% | B9 |

Target: T1, human CD20
Experiment: cell-based or functional assay
Remark: another data set of the same source

| Binder | % Cytotoxicity (CDC, Daudi), 0 hour | % Cytotoxicity (CDC, Daudi), 1 hour | % Cytotoxicity (CDC, Daudi), 6 hour |
| --- | --- | --- | --- |
| B3 | 99.6% | 99.2% | 98.5% |
| B5 | 55.8% | 22.3% | 12.9% |
| B6 | 99.4% | 99% | 96% |
| B7 | 99.4% | 99.4% | 98.3% |
| B9 | 99.6% | 99.2% | 97.7% |
